Literature values as cited in US20230220007A1, “SETD7 EPIGENETIC MODULATORS” (Biorchestra Co., Ltd., priority 2020, published 2023).

What was measured:
TAF10 = conditions: cited from earlier work
H3 and p53/TP53 = conditions: cited from earlier work

B1: K317A: SETD7 substitution mutant at position 317 (protein)
chain: MDSDDEMVEEAVEGHLDDDGLPHGFCTVTYSSTDRFEGNFVHGEKNGRGKFFFFDGSTLEGYYVDDALQGQGVYTYEDGGVLQGTYVDGELNGPAQEYDTDGRLIFKGQYKDNIRHGVCWIYYPDGGSLVGEVNEDGEMTGEKIAYVYPDERTALYGKFIDGEMIEGKLATLMSTEEGRPHFELMPGNSVYHFDKSTSSCISTNALLPDPYESERVYVAESLISSAGEGLFSKVAVGPNTVMSFYNGVRITHQEVDSRDWALNGNTLSLDEETVIDVPEPYNHVSKYCASLGHKANHSFTPNCIYDMFVHPRFGPIACIRTLRAVEADEELTVAYGYDHSPPGKSGPEAPEWYQVELKAFQATQQK
Question: What does the source list for B1?
Answer: methyltransferase activity toward TAF10 (TAF10): reduction; methyltransferase activity for H3 and p53/TP53 (H3 and p53/TP53): increased
